From patent publication US20250295737A1 (AstraZeneca / MedImmune, published 2025)
Where a chain is given by its changes, count along the chain named.

T1: human RXFP1 (human, UniProt Q9HBX9 1-757)
T1 sequence (looked up): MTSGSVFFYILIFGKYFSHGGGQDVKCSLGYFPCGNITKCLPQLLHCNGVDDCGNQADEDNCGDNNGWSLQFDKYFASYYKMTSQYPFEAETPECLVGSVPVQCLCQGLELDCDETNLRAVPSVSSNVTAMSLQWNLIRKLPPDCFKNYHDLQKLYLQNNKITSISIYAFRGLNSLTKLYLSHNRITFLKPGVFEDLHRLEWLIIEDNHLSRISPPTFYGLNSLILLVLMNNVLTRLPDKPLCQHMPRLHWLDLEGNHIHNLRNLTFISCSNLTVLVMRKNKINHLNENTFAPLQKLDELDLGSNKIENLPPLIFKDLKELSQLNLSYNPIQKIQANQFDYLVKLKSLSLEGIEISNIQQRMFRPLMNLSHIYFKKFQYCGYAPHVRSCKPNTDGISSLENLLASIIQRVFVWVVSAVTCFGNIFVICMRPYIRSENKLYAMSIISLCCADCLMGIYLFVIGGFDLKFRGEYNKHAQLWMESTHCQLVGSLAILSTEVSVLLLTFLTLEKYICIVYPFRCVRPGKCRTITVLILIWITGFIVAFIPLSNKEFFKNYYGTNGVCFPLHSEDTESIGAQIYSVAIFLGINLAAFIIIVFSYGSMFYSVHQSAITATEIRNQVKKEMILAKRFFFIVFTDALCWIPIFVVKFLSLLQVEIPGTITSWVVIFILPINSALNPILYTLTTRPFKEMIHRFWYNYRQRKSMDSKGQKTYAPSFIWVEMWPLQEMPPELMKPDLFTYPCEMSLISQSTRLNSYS

T2: mouse RXFP1 (mouse, UniProt Q6R6I7 1-758)
T2 sequence (looked up): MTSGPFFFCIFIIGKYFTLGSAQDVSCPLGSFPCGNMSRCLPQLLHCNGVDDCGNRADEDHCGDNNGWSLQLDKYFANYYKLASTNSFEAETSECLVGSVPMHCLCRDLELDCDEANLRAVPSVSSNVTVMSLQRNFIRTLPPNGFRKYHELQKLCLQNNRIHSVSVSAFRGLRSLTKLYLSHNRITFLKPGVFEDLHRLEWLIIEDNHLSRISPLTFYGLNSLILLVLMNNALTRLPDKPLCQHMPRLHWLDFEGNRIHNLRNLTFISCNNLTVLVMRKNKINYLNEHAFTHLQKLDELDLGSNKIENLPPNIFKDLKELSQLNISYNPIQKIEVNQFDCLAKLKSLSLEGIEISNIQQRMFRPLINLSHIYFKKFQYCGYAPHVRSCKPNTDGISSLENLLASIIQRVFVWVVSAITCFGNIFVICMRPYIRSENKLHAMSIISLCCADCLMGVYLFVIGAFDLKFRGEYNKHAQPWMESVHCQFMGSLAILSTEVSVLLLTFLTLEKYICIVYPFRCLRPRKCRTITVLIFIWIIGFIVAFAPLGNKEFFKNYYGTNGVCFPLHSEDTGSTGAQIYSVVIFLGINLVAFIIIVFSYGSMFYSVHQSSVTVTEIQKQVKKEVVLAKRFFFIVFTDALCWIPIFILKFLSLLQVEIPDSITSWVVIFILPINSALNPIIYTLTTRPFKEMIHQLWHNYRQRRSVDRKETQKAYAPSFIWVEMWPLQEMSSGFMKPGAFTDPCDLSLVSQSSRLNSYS

B1: RELAX0054 (Fc fusion)
chain 1: DKTHTCPPCPAPEFEGGPSVFLFPPKPKDTLMISRTPEVTCVVVDVSHEDPEVKFNWYVDGVEVHNAKTKPREEQYNSTYRVVSVLTVLHQDWLNGKEYKCKVSNKALPASIEKTISKAKGQPREPQVCTLPPSREEMTKNQVSLSCAVKGFYPSDIAVEWESNGQPENNYKTTPPVLDSDGSFFLVSKLTVDKSRWQQGNVFSCSVMHEALHNHYTQKSLSLSPGAAPAPAPAPAPAPAGSQLYSALANKCCHVGCTKRSLARFC
chain 2: DKTHTCPPCPAPEFEGGPSVFLFPPKPKDTLMISRTPEVTCVVVDVSHEDPEVKFNWYVDGVEVHNAKTKPREEQYNSTYRVVSVLTVLHQDWLNGKEYKCKVSNKALPASIEKTISKAKGQPREPQVYTLPPCREEMTKNQVSLWCLVKGFYPSDIAVEWESNGQPENNYKTTPPVLDSDGSFFLYSKLTVDKSRWQQGNVFSCSVMHEALHNHYTQKSLSLSPGAAPAPAPAPAPAPAGSSWMEEVIKLCGRELVRAQIAICGMSTWS
B2: RELAX0056 (Fc fusion)
chain 1: DKTHTCPPCPAPEFEGGPSVFLFPPKPKDTLMISRTPEVTCVVVDVSHEDPEVKFNWYVDGVEVHNAKTKPREEQYNSTYRVVSVLTVLHQDWLNGKEYKCKVSNKALPASIEKTISKAKGQPREPQVYTLPPCREEMTKNQVSLWCLVKGFYPSDIAVEWESNGQPENNYKTTPPVLDSDGSFFLYSKLTVDKSRWQQGNVFSCSVMHEALHNHYTQKSLSLSPGAPAPAPAPAPAPAPAPAPAGSQLYSALANKCCHVGCTKRSLARFC
chain 2: DKTHTCPPCPAPEFEGGPSVFLFPPKPKDTLMISRTPEVTCVVVDVSHEDPEVKFNWYVDGVEVHNAKTKPREEQYNSTYRVVSVLTVLHQDWLNGKEYKCKVSNKALPASIEKTISKAKGQPREPQVCTLPPSREEMTKNQVSLSCAVKGFYPSDIAVEWESNGQPENNYKTTPPVLDSDGSFFLVSKLTVDKSRWQQGNVFSCSVMHEALHNHYTQKSLSLSPGAPAPAPAPAPAPAPAPAPAGSSWMEEVIKLCGRELVRAQIAICGMSTWS
B3: RELAX0083 (Fc fusion)
chain 1: DKTHTCPPCPAPEFEGGPSVFLFPPKPKDTLMISRTPEVTCVVVDVSHEDPEVKFNWYVDGVEVHNAKTKPREEQYNSTYRVVSVLTVLHQDWLNGKEYKCKVSNKALPASIEKTISKAKGQPREPQVYTLPPCREEMTKNQVSLWCLVKGFYPSDIAVEWESNGQPENNYKTTPPVLDSDGSFFLYSKLTVDKSRWQQGNVFSCSVMHEALHNHYTQKSLSLSPGGGGGGSQLYSALANKCCHVGCTKRSLARFC
chain 2: DKTHTCPPCPAPEFEGGPSVFLFPPKPKDTLMISRTPEVTCVVVDVSHEDPEVKFNWYVDGVEVHNAKTKPREEQYNSTYRVVSVLTVLHQDWLNGKEYKCKVSNKALPASIEKTISKAKGQPREPQVCTLPPSREEMTKNQVSLSCAVKGFYPSDIAVEWESNGQPENNYKTTPPVLDSDGSFFLVSKLTVDKSRWQQGNVFSCSVMHEALHNHYTQKSLSLSPGGGGGGSSWMEEVIKLCGRELVRAQIAICGMSTWS
B4: RELAX0082 (Fc fusion)
chain 1: DKTHTCPPCPAPEFEGGPSVFLFPPKPKDTLMISRTPEVTCVVVDVSHEDPEVKFNWYVDGVEVHNAKTKPREEQYNSTYRVVSVLTVLHQDWLNGKEYKCKVSNKALPASIEKTISKAKGQPREPQVYTLPPCREEMTKNQVSLWCLVKGFYPSDIAVEWESNGQPENNYKTTPPVLDSDGSFFLYSKLTVDKSRWQQGNVFSCSVMHEALHNHYTQKSLSLSPGGGGGSGGGGGSQLYSALANKCCHVGCTKRSLARFC
chain 2: DKTHTCPPCPAPEFEGGPSVFLFPPKPKDTLMISRTPEVTCVVVDVSHEDPEVKFNWYVDGVEVHNAKTKPREEQYNSTYRVVSVLTVLHQDWLNGKEYKCKVSNKALPASIEKTISKAKGQPREPQVCTLPPSREEMTKNQVSLSCAVKGFYPSDIAVEWESNGQPENNYKTTPPVLDSDGSFFLVSKLTVDKSRWQQGNVFSCSVMHEALHNHYTQKSLSLSPGGGGGSGGGGGSSWMEEVIKLCGRELVRAQIAICGMSTWS
B5: RELAX0055 (Fc fusion)
chain 1: B4 chain 1 with G227A, G228P, G229A, G230P, S231A, G232P, G233A, G234P, G235A
chain 2: B4 chain 2 with G227A, G228P, G229A, G230P, S231A, G232P, G233A, G234P, G235A
B6: RELAX0081 (Fc fusion)
chain 1: DKTHTCPPCPAPEFEGGPSVFLFPPKPKDTLMISRTPEVTCVVVDVSHEDPEVKFNWYVDGVEVHNAKTKPREEQYNSTYRVVSVLTVLHQDWLNGKEYKCKVSNKALPASIEKTISKAKGQPREPQVYTLPPCREEMTKNQVSLWCLVKGFYPSDIAVEWESNGQPENNYKTTPPVLDSDGSFFLYSKLTVDKSRWQQGNVFSCSVMHEALHNHYTQKSLSLSPGGGGGSGGGGSGGGGGSQLYSALANKCCHVGCTKRSLARFC
chain 2: DKTHTCPPCPAPEFEGGPSVFLFPPKPKDTLMISRTPEVTCVVVDVSHEDPEVKFNWYVDGVEVHNAKTKPREEQYNSTYRVVSVLTVLHQDWLNGKEYKCKVSNKALPASIEKTISKAKGQPREPQVCTLPPSREEMTKNQVSLSCAVKGFYPSDIAVEWESNGQPENNYKTTPPVLDSDGSFFLVSKLTVDKSRWQQGNVFSCSVMHEALHNHYTQKSLSLSPGGGGGSGGGGSGGGGGSSWMEEVIKLCGRELVRAQIAICGMSTWS
B7: RELAX0109 (Fc fusion)
chain 1: B6 chain 1
chain 2: B1 chain 2

Target: human RXFP2 (human, UniProt Q8WXD0 1-754)
Sequence (Q8WXD0 whole entry): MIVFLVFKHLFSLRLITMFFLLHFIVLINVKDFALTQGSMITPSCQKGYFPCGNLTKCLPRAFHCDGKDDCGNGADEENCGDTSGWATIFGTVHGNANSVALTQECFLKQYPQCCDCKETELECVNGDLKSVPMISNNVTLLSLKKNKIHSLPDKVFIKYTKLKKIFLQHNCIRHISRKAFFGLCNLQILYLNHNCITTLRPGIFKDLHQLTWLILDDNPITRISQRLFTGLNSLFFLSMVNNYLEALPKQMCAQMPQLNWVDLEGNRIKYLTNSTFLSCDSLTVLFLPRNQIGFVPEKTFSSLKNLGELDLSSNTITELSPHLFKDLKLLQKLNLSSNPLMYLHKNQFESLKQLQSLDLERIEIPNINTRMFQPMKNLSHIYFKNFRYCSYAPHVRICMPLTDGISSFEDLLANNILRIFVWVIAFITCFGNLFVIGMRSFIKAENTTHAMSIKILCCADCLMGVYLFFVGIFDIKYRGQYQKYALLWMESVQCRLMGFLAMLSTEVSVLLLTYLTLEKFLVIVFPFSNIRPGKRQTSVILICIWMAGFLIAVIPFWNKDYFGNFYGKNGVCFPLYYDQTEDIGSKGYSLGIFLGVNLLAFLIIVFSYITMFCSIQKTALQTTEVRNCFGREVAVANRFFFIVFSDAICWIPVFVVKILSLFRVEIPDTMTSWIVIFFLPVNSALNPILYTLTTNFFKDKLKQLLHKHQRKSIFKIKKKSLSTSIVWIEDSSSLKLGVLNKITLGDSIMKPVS
Experiment: cell-based or functional assay

| Binder | EC50 hRXFP2 (M), cAMP HTRF assay [M] |
| --- | --- |
| B1 | 1.53e-08 |
| B2 | 6.48e-08 |
| B3 | 2.42e-08 |
| B4 | 3.81e-08 |
| B5 | 3.39e-08 |
| B6 | 4.92e-08 |

Target: T1, human RXFP1
Experiment: cell-based or functional assay

| Binder | EC50 hRXFP1 (M), cAMP HTRF assay [M] |
| --- | --- |
| B1 | 2.89e-11 |
| B2 | 3.87e-11 |
| B3 | 2.81e-11 |
| B4 | 5.68e-11 |
| B5 | 1.88e-11 |
| B6 | 4.51e-11 |
| B7 | 1.72e-09 |

Target: T2, mouse RXFP1
Experiment: cell-based or functional assay

| Binder | EC50 mRXFP1 (M), cAMP HTRF assay [M] |
| --- | --- |
| B1 | 1.59e-11 |
| B2 | 3.27e-11 |
| B3 | 1.34e-11 |
| B4 | 4.9e-11 |
| B5 | 1.51e-11 |
| B6 | 4.73e-11 |
| B7 | 8.22e-10 |
